This data set in a line: Immunogenicity after IV or IP administration to normal mice (IgG1 antibodies). The class given is in vivo, CB6F1/J mice. The settings on record: 20 ug in alum, days 1, 8 and 15, FIG. 20. The method, then: CAB1.11i and CAB1.2i were diluted in PBS to 200 ug/ml. For the i.p. group (group 5), CAB1.11i was diluted in a 1:1 solution of alum to PBS (resulting concentration=200 ug/ml) and vortexed rapidly for 10 minutes. The mixture was left at 2-8° C. for a minimum of 15 minutes. The mixture was revortexed 1 minute prior to injection into mice. The dosing solution was stored on ice prior to administration.
Wt BLA was diluted in PBS to 400 ug/ml. For the i.p. group, group 4, wt BLA was diluted in a 1:1 solution of alum to a PBS with resulting concentration=200 ug/ml and vortexed rapidly for 10 minutes. The mixture was left at 2-8° C. for a minimum of 15 minutes. The mixture was then revortexed 1 minute prior to injection into mice. The solution was stored on ice prior to administration.
Study design is outlined in Table 7. Female CB6F1/J mice were used for each group. Mice undergoing i.v. injections were placed under a heating lamp for approximately 3 minutes to vasodilate the tail vein, and then placed in a mouse restrainer for the i.v. injection. On days 1, 8 and 15, three mice of each strain each were administered CAB1.2i (20 ug), CAB1.11i (20 ug), or wt BLA (20 ug) intravenously, or wt BLA (20 ug) or CAB1.11i (20 ug) complexed with alum administered by an i.p. injection. Dose concentrations and volumes are outlined in Table 8. Dose concentrations were formulated based on a 100 uL injection/mouse. […]

B1: beta-lactamase: unmodified beta-lactamase protein, SEQ ID NO:11 (protein)
chain: TPVSEKQLAEVVANTITPLMKAQSVPGMAVAVIYQGKPHYYTFGKADIAANKPVTPQTLFELGSISKTFTGVLGGDAIARGEISLDDAVTRYWPQLTGKQWQGIRMLDLATYTAGGLPLQVPDEVTDNASLLRFYQNWQPQWKPGTTRLYANASIGLFGALAVKPSGMPYEQAMTTRVLKPLKLDHTWINVPKAEEAHYAWGYRDGKAVRVSPGMLDAQAYGVKTNVQDMANWVMANMAPENVADASLKQGIALAQSRYWRIGSMYQGLGWEMLNWPVEANTVVETSFGNVALAPLPVAEVNPPAPPVKASWVHKTGSTGGFGSYVAFIPEKQIGIVMLANTSYPNPARVEAAYHILEALQ
modifications: beta-lactamase protein
With B1, the “antibody response (anti-test article IgG1)” value is reported as “greatest antibody response”.
